Assay: label from the status in PepcDB records

Row | Sequence | protein production
1 | MGNGLAKCLIDGDTETFWHAKWQGGSDPLPYDIVIDMKQNIQIAQVELLPRGRGSNNPIKVVEFAASEDNVNWTPIGRFGFTNQDAALEYYVKSIKARYIRLTIPDDGGNSTVAAIRELDVKGTIINLEHHHHHH | failed
2 | MGNHFSKLGFVLAALGSAIGLGHIWRFPYMTGVSGGGAFVLLFLFLSLSVGAAMFIAEMLLGQSTQKNVTEAFKELDINPKKRWKYAGLLLVSGPLILTFYGTILGWVLYYLVSVSFNLPNNIQESEQIFTQTLQSIGLQSIGLFSVLLITGWIVSRGIKEGIEKLNLVLMPLLFATFFGLLFYAMSMDSFSKAFHFMFDFKPKDLTSQVFTYSLGQVFFSLSIGLGINITYAAVTDKTQNLLKSTIWVVLSGILISLVAGLMIFTFVFEYGANVSQGTGLIFTSLPVVFGQMGAIGILVSILFLLALAFAGITSTVALLEPSVMYLTERYQYSRFKVTWGLVALIFVVGVVLIFSLHKDYKDYLTFFEKSLFDWLDFASSTIIMPLGGMATFIFMGWVLKKEKLRLLSVHFLGPKLFATWYFLLKYITPLIVFSIWLSKIY | failed
3 | MGNMISAVVAAAGRGSRMMRDMAELGLEPVHKLLLPLNGVTVIEATVKAVLSAGVDECIVVTGHRAGEVEEALSGMDVRVVRNDPVDVPLSASLLRGVRAAGGDIILCAAGDQPAVSPATLRRIAEHADGSTVSILARGESGWLDNARGIGMPLAAGADLLRDYLPLGDGNINPLLWMMLEDGVRLYGVEASRPIELVNINHYSDYLRIRDHFLRTNADGN | failed
4 | MGPIGAEADENQTVEEMKVEQYGPQTTPRGELVPDPEPELIDSTKLIEVQVVLILAYCSIILLGVIGNSLVIHVVIKFKSMRTVTNFFIANLAVADLLVNTLCLPFTLTYTLMGEWKMGPVLCHLVPYAQGLAVQVSTITLTVIALDRHRCIVYHLESKISKRISFLIIGLAWGISALLASPLAIFREYSLIEIIPDFEIVACTEKWPGEEKSIYGTVYSLSSLLILYVLPLGIISFSYTRIWSKLKNHVSPGAANDHYHQRRQKTTKMLVCVVVVFAVSWLPLHAFQLAVDIDSQVLDLKEYKLIFTVFHIIAMCSTFANPLLYGWMNSNYRKAFLSAFRCEQRLDAIHSEVSVTFKAKKNLEVRKNSGPNDSFTEATNV | failed
5 | MGPVPIKLALVIPNYNHSAAISQALSELAALNLPCYLIDDGSNDETRYLLQSLAEQHDWVTLLQHPYNRGKGAAVMTGLRSAYRDGFTHALQVDADGQHNLSDIPAMLAKAQAKPDALISGKPEYDKSVPKGRLYGRYLTHFWVWVETLSFDIQDSMCGFRVYPLAATERLFSKQALTERMDFDIEILVKLYWQGVEILFHPTKVIYPENGVSHFQCVADNVRISKLHTRLFFGMLKRLPQLLRRKQAAKSTSSAHTATHWSAMKERGSYWGIKLLVESYRFGGHWLCRAIMYPVICYFFLTGKVSREASRDFLRRVQHLEPQHPQLNQPVGWRDSLNHFIAFGNAALDRIDAWCDRIQLSQVDFPDRQVLADQLESGKGAVLLVSHLGNLELCRAISIHQRKVKVNVMVLTSHAENFNNVLKQLNPNSSLNLIQVTELNPATSMLLQQKIEDGELVVIAGDRTSSHAQGRVVYAPFMGQDAAFPQGPFILAGLLDCPVYLMFCLREQGRYRVHLERFAETLKGPRAGRMERLQQAVYRYSERLEHYARREPLQWFNFFDFWRDDNQVNRATSAHKTTAALPEQERTTDRTEHLLEHHHHHH | not failed
6 | MGQIPPQPVRRVLPLMVVPGNGQKWRNRTETEEAMGDTYRDPVDHLRTTRPLAGESLIDVVHWPGYLLIVAGVVGGVGALAAFGTGHHAEGMTFGVVAIVVTVVGLAWLAFEHRRIRKIADRWYTEHPEVRRQRLAG | failed
7 | MGQIQQPIQGYDSTSPCGDNRDPQPFDFNFIFAFQPIVNIKNGHIYAQEALVRGLKGEGAHSILSRIDENNRYSFDQKARDKALQSALSCNWDGAISINFMPNAVYYPEYCLSQTLSTCEKLGINPARLIFEWSEKEYLTEYDHIRHVISRYKHLNFKVAFDDFGGLYSNFNLLTAYHPDIIKLDRHYVVGIEHDKRRRAVVKAMVGLCRDLGIDFVVEGVETIEEFKVLQDLGVDLMQGFLLARPALMQMPQATMPP | failed
8 | MGQMISEMRHGVRRPVWHDLAERFDEPRECLASFLALEAAEVLAGEKPANLIGIANRTRACGRNLYVLWKQWGAMVLGESGLAVRELSDRGDSLLLLLYRPEALEALLRRPSASAVLARAGYGAATGLDEVLTELSTRIDGDRFPHEIGVFLGYPLKDVAAFMGLVRIPFACQGPWKIFGDPRESLRLAEVFRCCRARMAERLNRCTSALDCLADGSPRPVVGFDEIESHSYGGKAMCIAVIGGMDRLEKHYREEAVRSGVELRMFSQSENNIAVKLKRFDALVIFTNKVSHRVKNEAMAVAKQNGIPVFMHHSCGVCTLRDCLSCLTATVAHVGESDRPDLGRRKNHS | failed
9 | MGQVEVIDRRQSVFGDDIQLQKRSSSYEIISNGVFLMSTENGRSEREMVTLGAQHMKNAVHSVLIGGLGVGITADEAVHLNDHVQVHVVEIEPSVVEWQYRYLYPFSNQALEHERTAIIISDIQQWLRTNERTYDLICLDTDNGPDWMVHKQNASLYGKIGLELVRERVRVGGAVSFWSASASESFLHELETLFDRVYEHAVSLEHHHHHH | failed
10 | MGRGRKHTDAAAEQRELAIKANIVDEPFSVSAIDRSIRKAEWVKTETDQILSGRCPETDGTWLGISTRGRVAFLVEAGTINRDRFNGAESRTLEFLESNESPEDFAKSSAADYIRNKNTAAFHLIVADIASNSMLYISKPRFSDYGIVYTEPVGPGVHTLSSAGLDSDVGYRDLRMRHSFCEMINRERLPPIRDIAEIMYDPVKAYESVLLSSIFFVDMKIGYEHYGTRITTALVVKRTKEVLFFERYREIFNDDWDDHDFAFTII | failed
11 | MGRKMGISGKLYSFLYLRGFKVWVSYRTQTVLTVLGWVLPVFTYYFTGTALGNRLVNEVGVSNYTAFFTIGLAFQGYVSSVISTISQRLRNEQLYGTIEYYVISRTGTFGFLLYSALWGLTLNTINAIIILAVGFALNIHYNVNIVSAIVIIVLLILSTLGIGMIAGAVTMVTKQGNPISFFFNTFTNLLGGTVFPVTVLPLYVRYISYGIPLTWALEGLREAFLNGAPITDIAPFIIILTIFDIVLLPLGVFSYNHAFKKAREKGTLGEY | failed
12 | MGRKPIKAGAIPRFRVRPQKSGVVYYYYDHGGKPRKETPLGRDYGLAIKRWAELEHAQITPAIAVTFRHVAERYRAEVIPTKAYNTQRMHHVYLNYLLQFFDDPPAPFESIKPVNIRQYLDWRPFKVSANREVALFSHLWNWARSKGITDLPNPCGGIRRNKERGRDVYIDDTTYRAVYQAADQTLRDAMDLAYLTGQRVSDVVSMDERHIVNGALEICQAKTGVKLAIAITGELAVLIKRIFDRKRGMKLRSTRLIVDEKGLGLNWKKLAYRFRKVRAAAGIAKEVFQFRDLRAKAATDKADLAGDIRQAQAQLGHTSVVMTEHYVRKRKGAKVTPTR | failed
13 | MGRLVSLLPSATDLIFELGLGEQLLGVSHCCDHPGAASLPVLTRSIIGSDLPQAEIDRAVSEAVRAGRALYTVDGPLLDRLRPDLVVTQGVCEVCAVTPGTVAEAVRFLPGCLPAEQVLSLEGKTFAGILADLRALARAAGLEHHHHHH | failed
14 | MGRPRVARLDRERIAEAALELVDRDGDFRMPDLARHLNVQVSSIYHHAKGRAAVVELVRHRVVREIDGSAFERLPWDEAFSEWARSYRAAFSRHPTAIRLLATETVRDPGSLSVYHSAAAGLRGAGFPDDHIMAVITAAENFLLGAALDAAAPEVMIEADSTTTDDALTRALAAAPRGPERAEQAFELGLAALLAGFHHLLQECGAVQR | not failed
15 | MGRPRYLAYTRQIAMKSWRKAVVGTQATVGDAIAAIESGSIQIALVLDDQNRLLGVVTDGDVRRGLLRGIPLTGLATDIMNRVPVSAPATLSRDDRLHLMRQKSIKQLPLVDEGGHLVVVETLDELLEPRHYANPVLIMAGGLGERLGALTRDVPKPMLNVGGRPLLETIVRNVVQQGFRNIYISVNYKAETIKDYFADGAAFGANIQYVHETERLGTAGALGLFPAPPDLPMIVTNGDILTTINYGALLDFHNGTPAEATMAVREHKVHVPYGVVSTSDGFLQAIREKPTESWFVSAGIYVIGSSVFGHVAPGVSIDMPTVLERVIAGKGRVAVYPIREYWLDIGRLEDFEQAHAEFHEVFPLEHHHHHH | not failed
